How the values were obtained:
[1] = molecular target: T1, full length cynomolgus monkey 5T4 on transfected HEK-293 cells (cynomolgus monkey, UniProt Q4R8Y9 35-420); experiment: flow cytometry, HEK-293 cells transfected with cynomolgus monkey 5T4, PE secondary [II)A]
T1 construct: Uniprot Q4R8Y9; residues 1-34 are the signal peptide; also called cynomolgus 5T4
T1 sequence: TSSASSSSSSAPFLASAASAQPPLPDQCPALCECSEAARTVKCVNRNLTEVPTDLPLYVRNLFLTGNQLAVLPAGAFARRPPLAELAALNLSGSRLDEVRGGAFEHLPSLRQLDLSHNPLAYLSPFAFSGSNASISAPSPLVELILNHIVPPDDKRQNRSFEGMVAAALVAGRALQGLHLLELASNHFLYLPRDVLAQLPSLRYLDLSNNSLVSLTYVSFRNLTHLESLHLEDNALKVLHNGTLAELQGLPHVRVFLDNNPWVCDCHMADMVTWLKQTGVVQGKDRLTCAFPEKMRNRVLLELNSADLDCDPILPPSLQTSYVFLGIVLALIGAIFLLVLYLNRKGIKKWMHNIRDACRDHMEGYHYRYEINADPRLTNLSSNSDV

[2] = molecular target: T2, full length human 5T4 (SEQ ID NO: 1) on cells (human, UniProt Q13641 32-420); experiment: flow cytometry, MDA-MB-231 cells, FITC secondary [I)A]
T2 construct: Uniprot Q13641; residues 1-31 are the signal peptide; Used both for transfected HEK-293 cells and for 5T4-expressing human tumor cell lines
T2 sequence: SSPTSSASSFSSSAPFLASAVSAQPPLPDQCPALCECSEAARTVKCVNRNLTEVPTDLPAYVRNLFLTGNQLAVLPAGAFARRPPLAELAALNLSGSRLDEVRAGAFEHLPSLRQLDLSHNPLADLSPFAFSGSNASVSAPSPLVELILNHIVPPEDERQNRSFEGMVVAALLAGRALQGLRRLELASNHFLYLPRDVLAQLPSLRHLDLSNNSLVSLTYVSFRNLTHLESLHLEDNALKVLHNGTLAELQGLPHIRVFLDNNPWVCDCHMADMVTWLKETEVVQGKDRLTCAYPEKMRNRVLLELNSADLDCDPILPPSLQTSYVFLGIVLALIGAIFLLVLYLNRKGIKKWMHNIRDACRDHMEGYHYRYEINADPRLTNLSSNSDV

[3] = molecular target: T2, full length human 5T4 (SEQ ID NO: 1) on …; experiment: flow cytometry, HeLa cells, PE secondary [II)A]
[4] = molecular target: T2, full length human 5T4 (SEQ ID NO: 1) on …; experiment: flow cytometry, SCC-9 cells, R-PE secondary
[5] = molecular target: T2, full length human 5T4 (SEQ ID NO: 1) on …; experiment: flow cytometry, HeLa cells, FITC secondary [I)A]
[6] = molecular target: T2, full length human 5T4 (SEQ ID NO: 1) on …; experiment: flow cytometry, HEK-293 cells transfected with human 5T4, PE secondary [II)A]
[7] = molecular target: T1, full length cynomolgus monkey 5T4 on …; experiment: flow cytometry, HEK-293 cells transfected with cynomolgus monkey 5T4, FITC secondary [I)A]
[8] = molecular target: T2, full length human 5T4 (SEQ ID NO: 1) on …; experiment: flow cytometry, MDA-MB-231 cells, PE secondary [III)A]
[9] = molecular target: T2, full length human 5T4 (SEQ ID NO: 1) on …; experiment: flow cytometry, NCI-H292 cells, R-PE secondary
[10] = molecular target: T2, full length human 5T4 (SEQ ID NO: 1) on …; experiment: flow cytometry, FaDu cells, R-PE secondary
[11] = molecular target: T2, full length human 5T4 (SEQ ID NO: 1) on …; experiment: flow cytometry, SK-GT-4 cells, R-PE secondary
[12] = molecular target: T2, full length human 5T4 (SEQ ID NO: 1) on …; experiment: flow cytometry, OE33 cells, R-PE secondary
[13] = molecular target: T1, full length cynomolgus monkey 5T4 on …; experiment: flow cytometry, HEK-293 cells transfected with cynomolgus monkey 5T4, FITC secondary [I)D]
[14] = molecular target: T2, full length human 5T4 (SEQ ID NO: 1) on …; experiment: flow cytometry, HEK-293 cells transfected with human 5T4, FITC secondary [I)D]
[15] = molecular target: T3, human 5T4ECDHis (mature protein of SEQ ID NO: 99) (human, UniProt Q13641 32-355); experiment: BLI cross-block; competitor (immobilised): IgG1-5T4-226-FEAR
T3 construct: ECD of human 5T4 (aa 1-355 of Uniprot Q13641) with C-terminal His tag; residues 1-31 are the signal peptide; also called ECD of human 5T4 with a C-terminal His tag
T3 sequence: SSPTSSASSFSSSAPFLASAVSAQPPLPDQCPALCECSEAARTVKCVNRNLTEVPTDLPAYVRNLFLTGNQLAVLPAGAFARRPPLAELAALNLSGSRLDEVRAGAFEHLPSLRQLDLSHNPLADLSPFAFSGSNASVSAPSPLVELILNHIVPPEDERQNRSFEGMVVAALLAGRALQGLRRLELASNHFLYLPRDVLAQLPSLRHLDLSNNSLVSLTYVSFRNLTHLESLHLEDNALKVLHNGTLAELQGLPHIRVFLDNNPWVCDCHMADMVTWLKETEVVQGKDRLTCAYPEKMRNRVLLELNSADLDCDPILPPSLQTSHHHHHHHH

[16] = molecular target: T3, human 5T4ECDHis (mature protein of SEQ …); experiment: BLI cross-block; competitor (immobilised): IgG1-5T4-059-FEAR
[17] = molecular target: T3, human 5T4ECDHis (mature protein of SEQ …); experiment: BLI cross-block; competitor (immobilised): IgG1-5T4-207-FEAR
[18] = molecular target: T2, full length human 5T4 (SEQ ID NO: 1) on …; experiment: flow cytometry, MDA-MB-231 cells, PE secondary [III)E]
[19] = molecular target: T3, human 5T4ECDHis (mature protein of SEQ …); experiment: BLI cross-block; competitor (immobilised): IgG1-5T4-A1-F405L
[20] = molecular target: T3, human 5T4ECDHis (mature protein of SEQ …); experiment: BLI cross-block; competitor (immobilised): IgG1-5T4-H8-FEAR
[21] = molecular target: T3, human 5T4ECDHis (mature protein of SEQ …); experiment: BLI cross-block; competitor (immobilised): IgG1-5T4-127-FEAR
[22] = molecular target: T1, full length cynomolgus monkey 5T4 on …; experiment: flow cytometry, HEK-293 cells transfected with cynomolgus monkey 5T4, PE secondary [II)F]
[23] = molecular target: T3, human 5T4ECDHis (mature protein of SEQ …); experiment: BLI cross-block; competitor (immobilised): IgG1-5T4-076-FEAR
[24] = molecular target: T3, human 5T4ECDHis (mature protein of SEQ …); experiment: BLI cross-block; competitor (immobilised): IgG1-5T4-085-FEAR
[25] = molecular target: T3, human 5T4ECDHis (mature protein of SEQ …); experiment: BLI cross-block; competitor (immobilised): IgG1-5T4-106-FEAR
[26] = molecular target: T3, human 5T4ECDHis (mature protein of SEQ …); experiment: BLI cross-block; competitor (immobilised): IgG1-5T4-A3-F405L

B1: bsIgG1-huCD3-H101G-FEALx5T4-207-FEAR (bispecific antibody)
heavy 1: not shown
light 1: not shown
heavy 2: QVQLQQWGAGLLKPSETLSLTCAVYGGSFSGYYWTWIRQPPGKGLEWIGEIDHSESTNYNPSLKSRVTISVDTSKNQFSLKLSSVTAADTAVYYCAGWFGELYHYYYGMDVWGQGTTVTVSSASTKGPSVFPLAPSSKSTSGGTAALGCLVKDYFPEPVTVSWNSGALTSGVHTFPAVLQSSGLYSLSSVVTVPSSSLGTQTYICNVNHKPSNTKVDKRVEPKSCDKTHTCPPCPAPEFEGGPSVFLFPPKPKDTLMISRTPEVTCVVVAVSHEDPEVKFNWYVDGVEVHNAKTKPREEQYNSTYRVVSVLTVLHQDWLNGKEYKCKVSNKALPAPIEKTISKAKGQPREPQVYTLPPSREEMTKNQVSLTCLVKGFYPSDIAVEWESNGQPENNYKTTPPVLDSDGSFFLYSRLTVDKSRWQQGNVFSCSVMHEALHNHYTQKSLSLSPG
light 2: not shown
notes: also called CD3x5T4 bispecific antibody
EC50 (read off the curve) [1]: ~0.03 µg/mL | EC50 (read off the curve) [2]: ~0.1 µg/mL | EC50 (read off the curve) [3]: ~0.04 µg/mL | EC50 (read off the curve) [4]: ~0.08 µg/mL | EC50 (read off the curve) [5]: ~0.04 µg/mL | EC50 (read off the curve) [6]: ~0.06 µg/mL | EC50 (read off the curve) [7]: ~0.1 µg/mL | EC50 (read off the curve) [8]: ~0.04 µg/mL | EC50 (read off the curve) [9]: ~0.03 µg/mL | EC50 (read off the curve) [10]: ~0.06 µg/mL | EC50 (read off the curve) [11]: ~0.08 µg/mL | EC50 (read off the curve) [12]: ~0.08 µg/mL

B2: bsIgG1-huCD3-H101G-FEALx5T4-H8-FEAR (bispecific antibody)
heavy: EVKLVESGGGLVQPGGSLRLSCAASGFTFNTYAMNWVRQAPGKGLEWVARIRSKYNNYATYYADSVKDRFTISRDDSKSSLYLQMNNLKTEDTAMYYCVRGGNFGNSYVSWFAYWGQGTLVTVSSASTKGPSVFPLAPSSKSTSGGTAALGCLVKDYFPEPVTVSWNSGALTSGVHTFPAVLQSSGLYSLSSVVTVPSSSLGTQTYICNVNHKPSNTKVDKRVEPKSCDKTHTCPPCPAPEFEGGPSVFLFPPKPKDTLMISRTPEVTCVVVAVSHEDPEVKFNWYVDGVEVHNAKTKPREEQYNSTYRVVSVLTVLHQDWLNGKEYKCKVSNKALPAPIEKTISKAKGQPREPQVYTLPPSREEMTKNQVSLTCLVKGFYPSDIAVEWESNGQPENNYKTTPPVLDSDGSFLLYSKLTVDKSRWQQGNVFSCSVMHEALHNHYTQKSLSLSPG
light: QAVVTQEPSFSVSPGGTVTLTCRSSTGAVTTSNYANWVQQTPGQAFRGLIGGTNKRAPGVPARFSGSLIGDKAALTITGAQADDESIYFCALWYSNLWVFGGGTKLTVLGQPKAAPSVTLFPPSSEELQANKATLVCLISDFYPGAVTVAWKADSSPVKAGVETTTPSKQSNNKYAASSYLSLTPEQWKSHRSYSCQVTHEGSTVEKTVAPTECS
VH: EVQLQQSGPDLVKPGASVKISCKASGYSFTGYYMHWVKQSHGKSLEWIGRINPNNGVTLYNQKFKDKAILTVDKSSTTAYMELRSLTSEDSAVYYCARSTMITNYVMDYWGQVTSVTVSS
VL: SIVMTQTPTFLLVSAGDRVTITCKASQSVSNDVAWYQQKPGQSPTLLISYTSSRYAGVPDRFIGSGYGTDFTFTISTLQAEDLAVYFCQQDYNSPPTFGGGTKLEIK
notes: Fab-arm exchange product
EC50 (read off the curve) [13]: ~0.1 µg/mL | binding result [14]: binds

B3: IgG1-5T4-085-FEAR (antibody, V domains shown)
VH: EVQLLESGGGLVQPGGSLRLSCAASGFTFSSYAMSWVRQAPGKGLEWVSAISGSGGSTYNADSVKGRFTIFRDNSKNTLYLHMNSLRAEDTAVYYCARDPGYNNVEYLDHWGQGTLVTVSS
VL: AIQLTQSPSSLSASVGDRVTITCRASQGISSALAWYQQKPGKAPKLLIYDASSLESGVPSRFSGSGSGTDFTLTISSLQPEDFATYYCQQFNSYPLTFGGGTKVEIK
notes: Monospecific, bivalent human IgG1 kappa with L234F, L235E, D265A, K409R (FEAR)
corrected association response [15]: 1.35 nm | corrected association response [16]: -0.02 nm | corrected association response [17]: 1.03 nm | EC50 (read off the curve) [18]: ~0.04 µg/mL | corrected association response [19]: 0.72 nm | corrected association response [20]: -0.02 nm | corrected association response [21]: -0.01 nm | EC50 (read off the curve) [22]: ~0.008 µg/mL | corrected association response [23]: -0.02 nm | corrected association response [24]: -0.01 nm | corrected association response [25]: -0.04 nm | corrected association response [26]: 0 nm

Source: patent US20230257479A1 (Genmab, published 2023)
